Results published in paper PMC12205087.

Assays:
[1] = molecular target: NbaSPARDA complex (heterodimer of NbaAgo and DREN-APAZ), wild type (Novosphingopyxis baekryungensis); assay: cryo-EM structure; active complex: NbaSPARDA with gRNA and 21-nt tDNA (1:1.2:1.2), 0.2 mg/mL; filament, 3.18 Å
[2] = molecular target: NbaSPARDA complex (heterodimer of NbaAgo and DREN-APAZ), wild type (Novosphingopyxis baekryungensis); assay: cryo-EM structure; guide-bound complex: NbaSPARDA with 20-nt 5'-phosphorylated gRNA (1:1.2, 25 °C, 15 min), 0.4 mg/mL, buffer F (20 mM Tris-HCl pH 8.0, 200 mM NaCl, 2 mM DTT, 2 mM MgCl2); 2.93 Å, C2 symmetry
[3] = molecular target: DREN-APAZ protein of the NbaSPARDA system, strep-tagged (Novosphingopyxis baekryungensis); assay: cryo-EM structure; active complex: NbaSPARDA with gRNA and 21-nt tDNA (1:1.2:1.2), 0.2 mg/mL; filament, 3.18 Å
[4] = molecular target: DREN-APAZ protein of the NbaSPARDA system, strep-tagged (Novosphingopyxis baekryungensis); assay: cryo-EM structure; substrate-bound complex: NbaSPARDA with gRNA, 21-nt tDNA and substrate ssDNA, 0.16 mg/mL; filament, 3.19 Å

stoichiometry N [1] [copies]	stoichiometry N [2]	stoichiometry N [3]	stoichiometry N [4]	Substance
32	2	–	–	NbaSPARDA complex (heterodimer of NbaAgo and DREN-APAZ), wild type
–	–	4	4	DREN-APAZ protein of the NbaSPARDA system, strep-tagged (natural protein)
